Source: patent publication US20160272683A1 (Novo Nordisk, published 2016)
Numbered stars: 1 amine (or outer) side, 2 acyl side, 3 side chain; on linkers, the order of the positions; unused ones are H or OH. * marks the point of attachment. C20 diacid = O=C(O)CCCCCCCCCCCCCCCCCCC(=O)*; C18 diacid = O=C(O)CCCCCCCCCCCCCCCCC(=O)*; γGlu = O=C(O)[C@H](CCC(=O)[*:2])N[*:1]

T1: human amylin receptor (human calcitonin receptor + human RAMP3) (human) (UniProt P30988)
T1 sequence (looked up) 1: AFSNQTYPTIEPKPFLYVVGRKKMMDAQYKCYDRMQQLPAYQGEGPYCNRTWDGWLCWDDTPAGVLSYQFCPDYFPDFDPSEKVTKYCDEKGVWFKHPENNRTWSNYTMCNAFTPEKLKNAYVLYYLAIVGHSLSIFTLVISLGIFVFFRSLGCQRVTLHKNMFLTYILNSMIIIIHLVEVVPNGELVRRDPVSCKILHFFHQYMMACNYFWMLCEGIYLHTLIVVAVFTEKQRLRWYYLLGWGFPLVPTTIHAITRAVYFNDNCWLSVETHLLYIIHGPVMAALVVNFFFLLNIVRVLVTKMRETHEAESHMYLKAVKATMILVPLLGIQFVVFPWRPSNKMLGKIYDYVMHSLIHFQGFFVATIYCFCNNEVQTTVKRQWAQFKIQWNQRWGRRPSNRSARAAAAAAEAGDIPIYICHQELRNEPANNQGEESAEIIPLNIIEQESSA
T1 sequence (looked up) 2: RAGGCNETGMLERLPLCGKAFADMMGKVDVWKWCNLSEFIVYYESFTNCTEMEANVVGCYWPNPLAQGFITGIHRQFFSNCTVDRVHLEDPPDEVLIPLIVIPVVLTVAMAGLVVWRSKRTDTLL


Biological target: T1, human amylin receptor (human calcitonin receptor + human RAMP3) (human)
Test: whole-cell competition vs 125I-rat amylin (Assay Va)

| Binder | IC50 [nM] |
| --- | --- |
| {C20 diacid-γGlu}-ASELSTAALGRLSAELHELATYPRTETGSGSY-OH [[N-terminal(C20 diacid-gGlu), des1, 23Y, 30S, 31G, 33Y, C-terminal(-)]mimylin] | 92 |
| {C20 diacid-γGlu}-ASELSTAALGRLSAELHELATYPRTETGSGSPG-OH (SMILES CC(C)C[C@H](NC(=O)[C@H](C)NC(=O)[C@H](C)NC(=O)[C@@H](NC(=O)[C@H](CO)NC(=O)[C@H](CC(C)C)NC(=O)[C@H](CCC(=O)O)NC(=O)[C@H](CO)NC(=O)[C@H](C)NC(=O)CC[C@H](NC(=O)CCCCCCCCCCCCCCCCCCC(=O)O)C(=O)O)[C@@H](C)O)C(=O)NCC(=O)N[C@@H](CCCNC(=N)N)C(=O)N[C@@H](CC(C)C)C(=O)N[C@@H](CO)C(=O)N[C@@H](C)C(=O)N[C@@H](CCC(=O)O)C(=O)N[C@@H](CC(C)C)C(=O)N[C@@H](Cc1c[nH]cn1)C(=O)N[C@@H](CCC(=O)O)C(=O)N[C@@H](CC(C)C)C(=O)N[C@@H](C)C(=O)N[C@H](C(=O)N[C@@H](Cc1ccc(O)cc1)C(=O)N1CCC[C@H]1C(=O)N[C@@H](CCCNC(=N)N)C(=O)N[C@H](C(=O)N[C@@H](CCC(=O)O)C(=O)N[C@H](C(=O)NCC(=O)N[C@@H](CO)C(=O)NCC(=O)N[C@@H](CO)C(=O)N1CCC[C@H]1C(=O)NCC(=O)O)[C@@H](C)O)[C@@H](C)O)[C@@H](C)O) [[N-terminal(C20 diacid-gGlu), des1, 23Y, 30S, 31G, 34G, C-terminal(-)]mimylin] | 7.26 |
| {C20 diacid-γGlu}-ASELSTATLGRLSAELHELSTYPRTETGSGSP-NH2 (SMILES CC(C)C[C@H](NC(=O)[C@H](CCCNC(=N)N)NC(=O)CNC(=O)[C@H](CC(C)C)NC(=O)[C@@H](NC(=O)[C@H](C)NC(=O)[C@@H](NC(=O)[C@H](CO)NC(=O)[C@H](CC(C)C)NC(=O)[C@H](CCC(=O)O)NC(=O)[C@H](CO)NC(=O)[C@H](C)NC(=O)CC[C@H](NC(=O)CCCCCCCCCCCCCCCCCCC(=O)O)C(=O)O)[C@@H](C)O)[C@@H](C)O)C(=O)N[C@@H](CO)C(=O)N[C@@H](C)C(=O)N[C@@H](CCC(=O)O)C(=O)N[C@@H](CC(C)C)C(=O)N[C@@H](Cc1c[nH]cn1)C(=O)N[C@@H](CCC(=O)O)C(=O)N[C@@H](CC(C)C)C(=O)N[C@@H](CO)C(=O)N[C@H](C(=O)N[C@@H](Cc1ccc(O)cc1)C(=O)N1CCC[C@H]1C(=O)N[C@@H](CCCNC(=N)N)C(=O)N[C@H](C(=O)N[C@@H](CCC(=O)O)C(=O)N[C@H](C(=O)NCC(=O)N[C@@H](CO)C(=O)NCC(=O)N[C@@H](CO)C(=O)N1CCC[C@H]1C(N)=O)[C@@H](C)O)[C@@H](C)O)[C@@H](C)O) [[N-terminal(C20 diacid-gGlu), des1, 9T, 21S, 23Y, 30S, 31G]mimylin] | 2.61 |
| {C18 diacid-γGlu}-ASELTTAVLGRLSAELHELATLPRTETGSGSP-NH2 (SMILES CC(C)C[C@H](NC(=O)[C@H](CCC(=O)O)NC(=O)[C@H](Cc1c[nH]cn1)NC(=O)[C@H](CC(C)C)NC(=O)[C@H](CCC(=O)O)NC(=O)[C@H](C)NC(=O)[C@H](CO)NC(=O)[C@H](CC(C)C)NC(=O)[C@H](CCCNC(=N)N)NC(=O)CNC(=O)[C@H](CC(C)C)NC(=O)[C@@H](NC(=O)[C@H](C)NC(=O)[C@@H](NC(=O)[C@@H](NC(=O)[C@H](CC(C)C)NC(=O)[C@H](CCC(=O)O)NC(=O)[C@H](CO)NC(=O)[C@H](C)NC(=O)CC[C@H](NC(=O)CCCCCCCCCCCCCCCCC(=O)O)C(=O)O)[C@@H](C)O)[C@@H](C)O)C(C)C)C(=O)N[C@@H](C)C(=O)N[C@H](C(=O)N[C@@H](CC(C)C)C(=O)N1CCC[C@H]1C(=O)N[C@@H](CCCNC(=N)N)C(=O)N[C@H](C(=O)N[C@@H](CCC(=O)O)C(=O)N[C@H](C(=O)NCC(=O)N[C@@H](CO)C(=O)NCC(=O)N[C@@H](CO)C(=O)N1CCC[C@H]1C(N)=O)[C@@H](C)O)[C@@H](C)O)[C@@H](C)O) [[N-terminal(C18 diacid-gGlu), des1, 6T, 9V, 30S, 31G]mimylin] | 0.653 |
| {C18 diacid-γGlu}-ASELTTAVLGRLSAELHELATLPRTETGSGTP-NH2 [[N-terminal(C18 diacid-gGlu), des1, 6T, 9V, 30S, 31G, 32T]mimylin] | 0.652 |
| {C18 diacid-γGlu}-ASELTTAVLGRLSAELHELATLPRTETGTGTP-NH2 [[N-terminal(C18 diacid-gGlu), des1, 6T, 9V, 30T, 31G, 32T]mimylin] | 2.15 |
| {C20 diacid-γGlu}-ASELSTAALGRLSAELHELATYPRTETGSGSPK-OH (SMILES CC(C)C[C@H](NC(=O)[C@H](C)NC(=O)[C@H](C)NC(=O)[C@@H](NC(=O)[C@H](CO)NC(=O)[C@H](CC(C)C)NC(=O)[C@H](CCC(=O)O)NC(=O)[C@H](CO)NC(=O)[C@H](C)NC(=O)CC[C@H](NC(=O)CCCCCCCCCCCCCCCCCCC(=O)O)C(=O)O)[C@@H](C)O)C(=O)NCC(=O)N[C@@H](CCCNC(=N)N)C(=O)N[C@@H](CC(C)C)C(=O)N[C@@H](CO)C(=O)N[C@@H](C)C(=O)N[C@@H](CCC(=O)O)C(=O)N[C@@H](CC(C)C)C(=O)N[C@@H](Cc1c[nH]cn1)C(=O)N[C@@H](CCC(=O)O)C(=O)N[C@@H](CC(C)C)C(=O)N[C@@H](C)C(=O)N[C@H](C(=O)N[C@@H](Cc1ccc(O)cc1)C(=O)N1CCC[C@H]1C(=O)N[C@@H](CCCNC(=N)N)C(=O)N[C@H](C(=O)N[C@@H](CCC(=O)O)C(=O)N[C@H](C(=O)NCC(=O)N[C@@H](CO)C(=O)NCC(=O)N[C@@H](CO)C(=O)N1CCC[C@H]1C(=O)N[C@@H](CCCCN)C(=O)O)[C@@H](C)O)[C@@H](C)O)[C@@H](C)O) [[N-terminal(C20 diacid-gGlu), des1, 23Y, 30S, 31G, 34K, C-terminal(-)]mimylin] | 21 |
| {C18 diacid-γGlu}-ASEVSTAVVGRLSAELHELATLPRTETGSGSP-NH2 (SMILES CC(C)C[C@H](NC(=O)[C@H](CCC(=O)O)NC(=O)[C@H](Cc1c[nH]cn1)NC(=O)[C@H](CC(C)C)NC(=O)[C@H](CCC(=O)O)NC(=O)[C@H](C)NC(=O)[C@H](CO)NC(=O)[C@H](CC(C)C)NC(=O)[C@H](CCCNC(=N)N)NC(=O)CNC(=O)[C@@H](NC(=O)[C@@H](NC(=O)[C@H](C)NC(=O)[C@@H](NC(=O)[C@H](CO)NC(=O)[C@@H](NC(=O)[C@H](CCC(=O)O)NC(=O)[C@H](CO)NC(=O)[C@H](C)NC(=O)CC[C@H](NC(=O)CCCCCCCCCCCCCCCCC(=O)O)C(=O)O)C(C)C)[C@@H](C)O)C(C)C)C(C)C)C(=O)N[C@@H](C)C(=O)N[C@H](C(=O)N[C@@H](CC(C)C)C(=O)N1CCC[C@H]1C(=O)N[C@@H](CCCNC(=N)N)C(=O)N[C@H](C(=O)N[C@@H](CCC(=O)O)C(=O)N[C@H](C(=O)NCC(=O)N[C@@H](CO)C(=O)NCC(=O)N[C@@H](CO)C(=O)N1CCC[C@H]1C(N)=O)[C@@H](C)O)[C@@H](C)O)[C@@H](C)O) [[N-terminal(C18 diacid-gGlu), des1, 5V, 9V, 10V, 30S, 31G]mimylin] | 1.17 |
| {C18 diacid-γGlu}-ASQLSTAALGRLSAQLHELATLPRTETGSGSP-NH2 (SMILES CC(C)C[C@H](NC(=O)[C@H](C)NC(=O)[C@H](C)NC(=O)[C@@H](NC(=O)[C@H](CO)NC(=O)[C@H](CC(C)C)NC(=O)[C@H](CCC(N)=O)NC(=O)[C@H](CO)NC(=O)[C@H](C)NC(=O)CC[C@H](NC(=O)CCCCCCCCCCCCCCCCC(=O)O)C(=O)O)[C@@H](C)O)C(=O)NCC(=O)N[C@@H](CCCNC(=N)N)C(=O)N[C@@H](CC(C)C)C(=O)N[C@@H](CO)C(=O)N[C@@H](C)C(=O)N[C@@H](CCC(N)=O)C(=O)N[C@@H](CC(C)C)C(=O)N[C@@H](Cc1c[nH]cn1)C(=O)N[C@@H](CCC(=O)O)C(=O)N[C@@H](CC(C)C)C(=O)N[C@@H](C)C(=O)N[C@H](C(=O)N[C@@H](CC(C)C)C(=O)N1CCC[C@H]1C(=O)N[C@@H](CCCNC(=N)N)C(=O)N[C@H](C(=O)N[C@@H](CCC(=O)O)C(=O)N[C@H](C(=O)NCC(=O)N[C@@H](CO)C(=O)NCC(=O)N[C@@H](CO)C(=O)N1CCC[C@H]1C(N)=O)[C@@H](C)O)[C@@H](C)O)[C@@H](C)O) [[N-terminal(C18 diacid-gGlu), des1, 4Q, 16Q, 30S, 31G]mimylin] | 0.428 |
| {C18 diacid-γGlu}-ASEVSTAVLGRLSAELHELATLPRTETGSGSP-NH2 [[N-terminal(C18 diacid-gGlu), des1, 5V, 9V, 30S, 31G]mimylin] | 0.812 |
| {C20 diacid-γGlu}-ASELSTAALGHLSAELHELATLPHTETGTGTP-NH2 (SMILES CC(C)C[C@H](NC(=O)[C@H](C)NC(=O)[C@H](C)NC(=O)[C@@H](NC(=O)[C@H](CO)NC(=O)[C@H](CC(C)C)NC(=O)[C@H](CCC(=O)O)NC(=O)[C@H](CO)NC(=O)[C@H](C)NC(=O)CC[C@H](NC(=O)CCCCCCCCCCCCCCCCCCC(=O)O)C(=O)O)[C@@H](C)O)C(=O)NCC(=O)N[C@@H](Cc1c[nH]cn1)C(=O)N[C@@H](CC(C)C)C(=O)N[C@@H](CO)C(=O)N[C@@H](C)C(=O)N[C@@H](CCC(=O)O)C(=O)N[C@@H](CC(C)C)C(=O)N[C@@H](Cc1c[nH]cn1)C(=O)N[C@@H](CCC(=O)O)C(=O)N[C@@H](CC(C)C)C(=O)N[C@@H](C)C(=O)N[C@H](C(=O)N[C@@H](CC(C)C)C(=O)N1CCC[C@H]1C(=O)N[C@@H](Cc1c[nH]cn1)C(=O)N[C@H](C(=O)N[C@@H](CCC(=O)O)C(=O)N[C@H](C(=O)NCC(=O)N[C@H](C(=O)NCC(=O)N[C@H](C(=O)N1CCC[C@H]1C(N)=O)[C@@H](C)O)[C@@H](C)O)[C@@H](C)O)[C@@H](C)O)[C@@H](C)O) [[N-terminal(C20 diacid-gGlu), des1, 12H, 25H, 30T, 31G, 32T]mimylin] | 1.51 |
